{"source": "paper PMC6504924", "about": "(2019)", "binders": {"B1": {"name": "unlabeled VEGF165a homodimer purified in the same manner (with CDN N-terminal appendage) (ligand)", "chain": "CDNAPMAEGGGQNHHEVVKFMDVYQRSYCHPIETLVDIFQEYPDEIEYIFKPSCVPLMRCGGCCNDEGLECVPTEESNITMQIMRIKPHQGQHIGEMSFLQHNKCECRPKKDRARQENPCGPCSERRKHLFVQDPQTCKCSCKNTDSRCKARQLELNERTCRCDKPRR", "modifications": "disulfide-linked homodimer; unlabeled; mature VEGF165 limits by convention (191-aa AUG-initiated isoform precursor, signal 1-26)"}, "B2": {"name": "CBT-labeled VEGF165a homodimer (vascular endothelial growth factor isoform VEGF165a labeled with DY605-PEG-CBT on the N-terminal cysteine) (ligand)", "chain": "B1 chain", "modifications": "DY605-PEG-CBT on the N-terminal cysteine (>=95% efficiency)"}, "B3": {"name": "CBT-labeled EGF (epidermal growth factor labeled with DY605-PEG-CBT on the N-terminal cysteine) (ligand)", "chain": "CDNNSDSECPLSHDGYCLHDGVCMYIEALDKYACNCVVGYIGERCQYRDLKWWELR", "modifications": "DY605-PEG-CBT on the N-terminal cysteine (>=95% efficiency)"}, "B4": {"name": "EGF labeled with 5-fold molar excess of DY605-NHS-ester (ligand)", "chain": "B3 chain", "modifications": "DY605-NHS-ester on multiple lysines and on the N-terminus, heterogeneous (0-2 fluorophores per protein)"}, "B5": {"name": "unlabeled EGF purified in the same manner (with CDN N-terminal appendage) (ligand)", "chain": "B3 chain", "modifications": "not fully specified"}, "B6": {"name": "EGF labeled with 2-fold molar excess of DY605-NHS-ester (ligand)", "chain": "B3 chain", "modifications": "DY605-NHS-ester on multiple lysines and on the N-terminus, heterogeneous (0-2 fluorophores per protein)"}, "B7": {"name": "CBT-labeled PDGF-BB homodimer (platelet-derived growth factor labeled with DY605-PEG-CBT on the N-terminal cysteine) (ligand)", "chain": "CDNSLGSLTIAEPAMIAECKTRTEVFEISRRLIDRTNANFLVWPPCVEVQRCSGCCNNRNVQCRPTQVQLRPVQVRKIEIVRKKPIFKKATVTLEDHLACKCETVAAARPVT", "modifications": "DY605-PEG-CBT on the N-terminal cysteine (>=95% efficiency)"}, "B8": {"name": "unlabeled PDGF-BB homodimer purified in the same manner (with CDN N-terminal appendage) (ligand)", "chain": "B7 chain"}}, "key": {"[1]": {"molecular_target": "T1, NanoLuc:VEGFR2 fusion on cells (UniProt P35968 20-1356)", "T1 sequence (P35968 20-1356)": "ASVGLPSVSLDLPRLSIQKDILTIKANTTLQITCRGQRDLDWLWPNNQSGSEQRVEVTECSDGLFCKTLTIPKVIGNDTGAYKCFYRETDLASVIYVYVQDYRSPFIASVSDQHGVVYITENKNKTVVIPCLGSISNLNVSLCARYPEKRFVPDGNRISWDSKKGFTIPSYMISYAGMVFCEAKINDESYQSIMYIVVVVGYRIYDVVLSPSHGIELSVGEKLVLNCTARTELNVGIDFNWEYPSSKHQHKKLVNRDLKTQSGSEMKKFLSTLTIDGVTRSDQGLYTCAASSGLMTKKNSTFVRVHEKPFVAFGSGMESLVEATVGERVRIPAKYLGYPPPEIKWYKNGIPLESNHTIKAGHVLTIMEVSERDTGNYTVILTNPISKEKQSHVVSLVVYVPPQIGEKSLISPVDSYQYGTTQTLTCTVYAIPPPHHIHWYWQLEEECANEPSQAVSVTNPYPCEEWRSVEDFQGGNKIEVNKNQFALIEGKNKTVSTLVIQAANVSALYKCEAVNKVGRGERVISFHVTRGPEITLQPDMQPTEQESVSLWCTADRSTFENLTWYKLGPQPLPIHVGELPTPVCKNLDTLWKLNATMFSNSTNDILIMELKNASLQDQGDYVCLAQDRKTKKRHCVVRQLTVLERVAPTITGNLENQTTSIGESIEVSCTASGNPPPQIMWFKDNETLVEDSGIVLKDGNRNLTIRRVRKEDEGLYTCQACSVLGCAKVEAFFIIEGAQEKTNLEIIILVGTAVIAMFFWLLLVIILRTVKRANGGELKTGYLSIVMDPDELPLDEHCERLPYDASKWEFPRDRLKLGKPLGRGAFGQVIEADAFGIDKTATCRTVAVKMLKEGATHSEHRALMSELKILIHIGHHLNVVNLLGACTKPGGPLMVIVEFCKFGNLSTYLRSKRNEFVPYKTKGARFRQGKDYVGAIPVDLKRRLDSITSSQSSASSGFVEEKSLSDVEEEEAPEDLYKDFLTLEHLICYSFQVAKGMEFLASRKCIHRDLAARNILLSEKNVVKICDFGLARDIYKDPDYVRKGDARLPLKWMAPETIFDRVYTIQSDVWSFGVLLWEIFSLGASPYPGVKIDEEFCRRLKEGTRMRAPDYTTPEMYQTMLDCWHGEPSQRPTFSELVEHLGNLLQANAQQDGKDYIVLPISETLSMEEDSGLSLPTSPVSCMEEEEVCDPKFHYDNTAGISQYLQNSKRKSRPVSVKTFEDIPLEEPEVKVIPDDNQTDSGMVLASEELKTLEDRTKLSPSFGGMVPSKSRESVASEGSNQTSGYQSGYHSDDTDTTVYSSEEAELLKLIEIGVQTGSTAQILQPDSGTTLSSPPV", "test": "competition with CBT-labeled VEGF165a"}, "[2]": {"molecular_target": "T1, NanoLuc:VEGFR2 fusion on cells", "test": "competition with CBT-labeled VEGF165a", "remark": "listed apart in the source"}, "[3]": {"molecular_target": "T1, NanoLuc:VEGFR2 fusion on cells"}, "[4]": {"molecular_target": "T2, NanoLuc:EGFR fusion on cells (UniProt P00533 25-1210)"}, "[5]": {"molecular_target": "T2, NanoLuc:EGFR fusion on cells", "remark": "listed apart in the source"}, "[6]": {"molecular_target": "T2, NanoLuc:EGFR fusion on cells", "test": "competition with CBT-labeled EGF"}, "[7]": {"molecular_target": "T2, NanoLuc:EGFR fusion on cells", "test": "competition with CBT-labeled EGF", "remark": "listed apart in the source"}, "[8]": {"molecular_target": "T3, NanoLuc:PDGFRβ fusion on cells (UniProt P09619 33-1106)", "T3 sequence (P09619 33-1106)": "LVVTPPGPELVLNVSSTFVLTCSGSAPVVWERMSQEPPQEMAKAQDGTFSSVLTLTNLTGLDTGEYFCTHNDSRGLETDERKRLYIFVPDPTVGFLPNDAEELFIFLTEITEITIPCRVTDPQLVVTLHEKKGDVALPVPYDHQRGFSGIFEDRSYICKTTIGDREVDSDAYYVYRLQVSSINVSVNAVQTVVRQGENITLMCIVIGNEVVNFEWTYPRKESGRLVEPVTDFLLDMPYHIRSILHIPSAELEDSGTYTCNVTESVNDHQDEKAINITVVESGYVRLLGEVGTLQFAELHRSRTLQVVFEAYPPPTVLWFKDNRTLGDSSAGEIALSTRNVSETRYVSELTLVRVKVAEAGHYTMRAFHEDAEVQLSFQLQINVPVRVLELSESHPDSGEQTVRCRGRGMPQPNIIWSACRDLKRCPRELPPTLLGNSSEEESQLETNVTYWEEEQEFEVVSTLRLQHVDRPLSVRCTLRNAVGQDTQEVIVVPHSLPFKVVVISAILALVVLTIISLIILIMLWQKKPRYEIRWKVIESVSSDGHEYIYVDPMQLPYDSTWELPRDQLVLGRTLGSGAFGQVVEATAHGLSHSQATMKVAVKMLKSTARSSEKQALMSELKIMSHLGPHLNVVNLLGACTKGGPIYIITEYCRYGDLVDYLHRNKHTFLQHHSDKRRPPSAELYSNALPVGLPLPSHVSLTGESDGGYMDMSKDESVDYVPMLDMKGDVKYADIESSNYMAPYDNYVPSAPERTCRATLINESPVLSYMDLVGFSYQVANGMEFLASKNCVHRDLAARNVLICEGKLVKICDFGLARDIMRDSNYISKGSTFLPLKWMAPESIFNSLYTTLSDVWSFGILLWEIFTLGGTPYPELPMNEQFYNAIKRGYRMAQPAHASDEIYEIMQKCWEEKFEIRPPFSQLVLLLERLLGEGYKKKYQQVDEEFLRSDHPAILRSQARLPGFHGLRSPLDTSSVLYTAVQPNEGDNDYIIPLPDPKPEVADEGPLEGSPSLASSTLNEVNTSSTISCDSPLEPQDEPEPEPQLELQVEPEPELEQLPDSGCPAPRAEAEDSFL"}, "[9]": {"molecular_target": "T3, NanoLuc:PDGFRβ fusion on cells", "remark": "listed apart in the source"}, "[10]": {"molecular_target": "T3, NanoLuc:PDGFRβ fusion on cells", "test": "competition with CBT-labeled PDGF-BB"}, "[11]": {"molecular_target": "T3, NanoLuc:PDGFRβ fusion on cells", "test": "competition with CBT-labeled PDGF-BB", "remark": "listed apart in the source"}}, "data": [{"binder": "B1", "values": [{"measurement": "Ki", "setting": "[1]", "result": 0.047, "unit": "nM"}, {"measurement": "IC50", "setting": "[2]", "result": 0.12, "unit": "nM"}]}, {"binder": "B2", "values": [{"measurement": "Kd", "setting": "[3]", "result": 0.049, "unit": "nM"}]}, {"binder": "B3", "values": [{"measurement": "Kd", "setting": "[4]", "result": 0.16, "unit": "nM"}, {"measurement": "EC50", "setting": "[5]", "result": 0.13, "unit": "nM"}]}, {"binder": "B4", "values": [{"measurement": "EC50", "setting": "[5]", "result": 0.25, "unit": "nM"}]}, {"binder": "B5", "values": [{"measurement": "Ki", "setting": "[6]", "result": 0.15, "unit": "nM"}, {"measurement": "IC50", "setting": "[7]", "result": 0.35, "unit": "nM"}]}, {"binder": "B6", "values": [{"measurement": "EC50", "setting": "[5]", "result": 0.16, "unit": "nM"}]}, {"binder": "B7", "values": [{"measurement": "Kd", "setting": "[8]", "result": 0.062, "unit": "nM"}, {"measurement": "EC50", "setting": "[9]", "result": 0.068, "unit": "nM"}]}, {"binder": "B8", "values": [{"measurement": "IC50", "setting": "[10]", "result": 0.11, "unit": "nM"}, {"measurement": "Ki", "setting": "[11]", "result": 0.044, "unit": "nM"}]}]}
